Laboratory results from PMC7927433 (The Journal of Experimental Medicine, 2020).

Target: T1, recombinant XPF-HA (human, UniProt Q92889 1-916)
T1 sequence: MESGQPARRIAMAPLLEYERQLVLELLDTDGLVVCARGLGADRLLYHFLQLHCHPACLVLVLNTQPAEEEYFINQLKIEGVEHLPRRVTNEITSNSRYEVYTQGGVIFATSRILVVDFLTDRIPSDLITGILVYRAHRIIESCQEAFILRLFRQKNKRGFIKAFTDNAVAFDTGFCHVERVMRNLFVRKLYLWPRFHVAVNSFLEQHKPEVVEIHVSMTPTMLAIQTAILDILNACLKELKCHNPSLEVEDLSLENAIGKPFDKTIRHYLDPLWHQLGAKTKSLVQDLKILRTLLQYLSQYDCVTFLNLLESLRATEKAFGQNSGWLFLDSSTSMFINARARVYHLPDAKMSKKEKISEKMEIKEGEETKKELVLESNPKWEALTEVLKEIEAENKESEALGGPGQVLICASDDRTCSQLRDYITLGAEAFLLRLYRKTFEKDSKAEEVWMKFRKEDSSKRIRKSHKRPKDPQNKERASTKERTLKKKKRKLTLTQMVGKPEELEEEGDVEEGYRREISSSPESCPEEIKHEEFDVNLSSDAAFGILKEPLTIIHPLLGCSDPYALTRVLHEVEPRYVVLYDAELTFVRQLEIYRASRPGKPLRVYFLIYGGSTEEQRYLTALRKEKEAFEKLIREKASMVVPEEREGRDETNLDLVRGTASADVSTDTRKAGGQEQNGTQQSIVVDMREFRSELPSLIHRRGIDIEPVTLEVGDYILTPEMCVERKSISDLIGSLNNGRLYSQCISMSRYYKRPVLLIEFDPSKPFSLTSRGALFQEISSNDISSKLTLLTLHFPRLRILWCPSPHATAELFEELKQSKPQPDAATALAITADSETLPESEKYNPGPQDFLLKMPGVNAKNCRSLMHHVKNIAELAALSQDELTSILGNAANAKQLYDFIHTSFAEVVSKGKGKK
Assay: SEC

binding result: binds
B1: recombinant ERCC1^R156W-His (natural protein)
chain: MDPGKDKEGVPQPSGPPARKKFVIPLDEDEVPPGVAKPLFRSTQSLPTVDTSAQAAPQTYAEYAISQPLEGAGATCPTGSEPLAGETPNQALKPGAKSNSIIVSPRQRGNPVLKFVRNVPWEFGDVIPDYVLGQSTCALFLSLRYHNLHPDYIHGWLQSLGKNFALRVLLVQVDVKDPQQALKELAKMCILADCTLILAWSPEEAGRYLETYKAYEQKPADLLMEKLEQDFVSRVTECLTTVKSVNKTDSQTLLTTFGSLEQLIAASREDLALCPGLGPQKARRLFDVLHEPFLKVP
